Data: patent US20240228595A1 (YALE UNIVERSITY, published 2024)
Like-named read-outs stand apart in the source and are kept apart here.

Legend:
[1] = molecular target: SARS-COV-2 Omicron BA.1 spike on HIV-1 based pseudovirus (Example 3) (SARS-CoV-2 Omicron BA.1, UniProt P0DTC2 14-1273); test: cell-based or functional assay
[2] = molecular target: SARS-COV-2 Omicron BA.1.1 spike on HIV-1 based pseudovirus (SARS-CoV-2 Omicron BA.1.1, UniProt P0DTC2 14-1273); test: cell-based or functional assay
[3] = molecular target: SARS-COV-2 Omicron BA.2 spike on HIV-1 based pseudovirus (SARS-CoV-2 Omicron BA.2, UniProt P0DTC2 14-1273); test: cell-based or functional assay
[4] = molecular target: SARS-COV-2 Omicron (B.1.1.529) full length spike on HIV-1 based pseudovirus (Example 2) (SARS-CoV-2 Omicron, UniProt P0DTC2 14-1273); test: cell-based or functional assay
[5] = molecular target: T1, SARS-COV-2 Omicron RBD recombinant protein (Sino Biological 40592-V08H121) (SARS-CoV-2 Omicron BA.1, UniProt P0DTC2 319-541)
[6] = molecular target: T1, SARS-COV-2 Omicron RBD recombinant …; remark: listed apart in the source
[7] = molecular target: T1, SARS-COV-2 Omicron RBD recombinant …; test: BLI (Octet); by the text the format with mAb immobilised and soluble Omicron RBD
[8] = molecular target: T1, SARS-COV-2 Omicron RBD recombinant …; remark: listed apart in the source
[9] = molecular target: T1, SARS-COV-2 Omicron RBD recombinant …; test: ELISA, SARS-CoV-2-Omicron BA.1 RBD coated, antibody titrated
[10] = molecular target: T1, SARS-COV-2 Omicron RBD recombinant …; remark: listed apart in the source
[11] = molecular target: T1, SARS-COV-2 Omicron RBD recombinant …; remark: listed apart in the source
[12] = molecular target: T1, SARS-COV-2 Omicron RBD recombinant …; remark: listed apart in the source

B1: CoV2-0213 (bispecific antibody, human IgG1, kappa)
heavy 1: not shown
light 1: DIQMTQSPSSLSASVGDRVTITCRASESVEYYGTSLMQWYQQKPGKAPKLLIYAASNVESGVPARFSGSGSGTDFTLTISSLQPEDFATYYCQQSRKVPWTFGQGTKVEIKRSSASTKGPSVFPLAPSSKSTSGGTAALGCLVKDYFPEPVTVSWNSGALTSGVHTFPAVLQSSGLYSLSSVVTVPSSSLGTQTYICNVNHKPSNTKVDKKVEPKSC
heavy 2: not shown
light 2: not shown
[1]
  pseudovirus neutralization, IC50: 0.044 µg/mL
[2]
  pseudovirus neutralization, IC50: 0.062 µg/mL
[3]
  pseudovirus neutralization, IC50: 0.078 µg/mL
  pseudovirus neutralization, fold more effective than S309/Sotrovimab: ~78 fold

B2: Clone 2 (antibody, V domains shown)
VH: EVQLQQSGPELVKPGASVKISCKASGYSFTGYSMNWMKQSPEKSLEWIGEINPSTGGTTDNQKFKAKATLTVDKSSSTAYMQLKSLTSEDSAVYYCARSRGDYWGQGTSVTVSS
VL: DIVLTQSPASLAVSLGQRATISCRASESVEYYGTSLMQWYQQKPGQPPKVLIYAASNVESGVPARFSGSGSGTDFSLNIHPVEEDDIAMYFCQQSRKVPWTFGGGTKLEIKR
[4]
  pseudovirus neutralization, IC50: 0.396 µg/mL

B3: MB.08 (antibody, V domains shown)
VH: QVQLQESGPGLVKPSETLSLTCTVSGGSISSYYWSWIRQPPGKGLEWIGYIYYSGSTNYNPSLKSRVTISVDTSKNQFSLKLSSVTAADTAVYYCARGLTGGDAFDIWGQGTMVTVSS
VL: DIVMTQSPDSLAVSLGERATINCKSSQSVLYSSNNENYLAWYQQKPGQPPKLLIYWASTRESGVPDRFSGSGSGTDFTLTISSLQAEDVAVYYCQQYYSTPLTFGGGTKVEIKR
[5]
  EC50: 0.0122 µg/mL
[6]
  koff: 0.00536 s⁻¹
  kon: 418000 M⁻¹ s⁻¹
[7]
  Kd: 7.16 nM
[8]
  EC50 (read off the curve): ~0.2 µg/mL
[9]
  EC50: 0.0014 µg/mL
[10]
  Kd: < 0.001 nM
[11]
  koff: 0.00536 s⁻¹
  kon: 418000 M⁻¹ s⁻¹
[12]
  koff: < 1e-07 s⁻¹
  kon: 172000 M⁻¹ s⁻¹
